Columns and labels:
HLA-A*02:11 = assay: IEDB peptide-MHC binding, purified MHC/competitive/fluorescence; filed as Kd, often an IC50 or EC50 that approximates it; ≥ and ≤ were set here for values at or beyond the usual limits of such assays
HLA-A*02:19 = assay: as above
HLA-A*02:03 = assay: as above
HLA-A*69:01 = assay: as above
HLA-A*02:01 [1] = assay: as above
HLA-B*57:01 [2] = assay: as above
HLA-A*29:02 = assay: as above
HLA-A*02:12 = assay: as above
HLA-A*03:01 [3] = assay: as above
HLA-B*39:01 = assay: as above
HLA-A*24:03 = assay: as above
HLA-B*27:03 = assay: as above
HLA-B*15:01 [4] = assay: as above
HLA-B*18:01 = assay: as above
HLA-A*23:01 = assay: as above
HLA-B*46:01 [5] = assay: as above
HLA-B*51:01 [6] = assay: as above
HLA-A*68:02 = assay: as above
HLA-A*26:01 = assay: as above
HLA-A*02:16 = assay: as above
HLA-B*07:02 = assay: as above; settings: source organism: Yersinia pestis Nepal516
HLA-B*08:01 = assay: as above
HLA-A*31:01 [7] = assay: as above; settings: source organism: Entamoeba histolytica HM-1:IMSS
HLA-B*15:17 [8] = assay: as above; settings: source organism: Burkholderia pseudomallei K96243
HLA-B*48:01 = assay: IEDB peptide-MHC binding, purified MHC/direct/fluorescence; filed as Kd, often an IC50 or EC50 that approximates it; ≥ and ≤ were set here for values at or beyond the usual limits of such assays; settings: source organism: Mycobacterium tuberculosis
HLA-B*57:01 [9] = assay: as above; settings: source organism: Mycobacterium tuberculosis
HLA-B*15:17 [10] = assay: as above; settings: source organism: Mycobacterium tuberculosis
HLA-A*31:01 [11] = assay: as above; settings: source organism: Mycobacterium tuberculosis
HLA-B*40:01 = assay: as above; settings: source organism: Mycobacterium tuberculosis
HLA-A*03:01 [12] = assay: as above; settings: source organism: Mycobacterium tuberculosis
HLA-B*15:01 [13] = assay: as above; settings: source organism: Mycobacterium tuberculosis
HLA-B*15:09 = assay: as above; settings: source organism: Mycobacterium tuberculosis str. Haarlem
HLA-B*46:01 [14] = assay: as above; settings: source organism: Mycobacterium tuberculosis
HLA-B*58:01 = assay: as above; settings: source organism: Mycobacterium tuberculosis
HLA-B*27:05 = assay: as above; settings: source organism: Mycobacterium tuberculosis
HLA-B*51:01 [15] = assay: as above; settings: source organism: Mycobacterium tuberculosis
HLA-A*02:01 [16] = assay: as above; settings: source organism: Mycobacterium tuberculosis
HLA-A*01:01 = assay: as above; settings: source organism: Mycobacterium tuberculosis
HLA-A*11:01 = assay: IEDB peptide-MHC binding, purified MHC/competitive/fluorescence; filed as Kd, often an IC50 or EC50 that approximates it; ≥ and ≤ were set here for values at or beyond the usual limits of such assays; settings: source organism: Mycobacterium tuberculosis variant bovis BCG str. Pasteur 1173P2
HLA-A*30:01 = assay: as above; settings: source organism: Mycobacterium tuberculosis variant bovis BCG str. Pasteur 1173P2
[17] = source organism: Human immunodeficiency virus 1
[18] = source organism: Plasmodium yoelii yoelii
[19] = source organism: Cryptosporidium parvum Iowa II
[20] = source organism: Yersinia pestis Nepal516
[21] = source organism: Entamoeba histolytica HM-1:IMSS
[22] = source organism: Burkholderia pseudomallei K96243
[23] = source organism: Mycobacterium tuberculosis variant bovis BCG str. Pasteur 1173P2

GLADQLIHM
Kd (HLA-A*02:11; [17]): 0.0008 µM
Kd (HLA-A*02:19; [17]): 0.155 µM
Kd (HLA-A*02:03; [17]): 0.0024 µM
Kd (HLA-A*69:01; [17]): ≥ 20 µM
Kd (HLA-A*02:01 [1]; [17]): 0.0837 µM

KPPRGVLLY
Kd (HLA-B*57:01 [2]; [18]): ≥ 20 µM
Kd (HLA-A*29:02; [18]): 0.115 µM
Kd (HLA-A*02:12; [18]): ≥ 20 µM
Kd (HLA-A*03:01 [3]; [18]): ≥ 20 µM
Kd (HLA-B*39:01; [18]): ≥ 20 µM
Kd (HLA-A*02:19; [18]): ≥ 20 µM
Kd (HLA-A*24:03; [18]): ≥ 20 µM
Kd (HLA-B*27:03; [18]): ≥ 20 µM
Kd (HLA-B*15:01 [4]; [18]): ≥ 20 µM
Kd (HLA-A*02:03; [18]): ≥ 20 µM
Kd (HLA-B*18:01; [18]): ≥ 20 µM
Kd (HLA-A*23:01; [18]): ≥ 20 µM
Kd (HLA-B*46:01 [5]; [18]): ≥ 20 µM
Kd (HLA-A*69:01; [18]): ≥ 20 µM
Kd (HLA-B*51:01 [6]; [18]): ≥ 20 µM
Kd (HLA-A*68:02; [18]): ≥ 20 µM
Kd (HLA-A*02:01 [1]; [18]): ≥ 20 µM
Kd (HLA-A*26:01; [18]): ≥ 20 µM

LTAPCDIYV
Kd (HLA-B*57:01 [2]; [19]): ≥ 20 µM
Kd (HLA-A*02:16; [19]): 0.0005 µM
Kd (HLA-A*29:02; [19]): ≥ 20 µM
Kd (HLA-A*02:11; [19]): ≥ 20 µM
Kd (HLA-A*03:01 [3]; [19]): ≥ 20 µM
Kd (HLA-B*39:01; [19]): ≥ 20 µM
Kd (HLA-A*02:19; [19]): ≥ 20 µM
Kd (HLA-A*24:03; [19]): ≥ 20 µM
Kd (HLA-B*27:03; [19]): ≥ 20 µM
Kd (HLA-B*15:01 [4]; [19]): ≥ 20 µM
Kd (HLA-B*18:01; [19]): ≥ 20 µM
Kd (HLA-A*23:01; [19]): ≥ 20 µM
Kd (HLA-B*46:01 [5]; [19]): ≥ 20 µM
Kd (HLA-B*51:01 [6]; [19]): ≥ 20 µM
Kd (HLA-A*02:01 [1]; [19]): ≥ 20 µM
Kd (HLA-A*26:01; [19]): ≥ 20 µM

MPLKVQVCI
Kd (HLA-B*07:02): 0.304 µM
Kd (HLA-B*51:01 [6]; [20]): 1.27 µM
Kd (HLA-B*08:01; [20]): 0.816 µM

RSLVCLAPK
Kd (HLA-B*57:01 [2]; [21]): ≥ 20 µM
Kd (HLA-A*02:16; [21]): ≥ 20 µM
Kd (HLA-A*29:02; [21]): ≥ 20 µM
Kd (HLA-A*31:01 [7]): 0.0465 µM
Kd (HLA-A*02:11; [21]): ≥ 20 µM
Kd (HLA-A*02:12; [21]): ≥ 20 µM
Kd (HLA-B*39:01; [21]): ≥ 20 µM
Kd (HLA-A*02:19; [21]): ≥ 20 µM
Kd (HLA-A*24:03; [21]): ≥ 20 µM
Kd (HLA-B*27:03; [21]): ≥ 20 µM
Kd (HLA-B*15:01 [4]; [21]): ≥ 20 µM
Kd (HLA-A*02:03; [21]): ≥ 20 µM
Kd (HLA-B*18:01; [21]): ≥ 20 µM
Kd (HLA-A*23:01; [21]): ≥ 20 µM
Kd (HLA-B*46:01 [5]; [21]): ≥ 20 µM
Kd (HLA-A*69:01; [21]): ≥ 20 µM
Kd (HLA-B*51:01 [6]; [21]): ≥ 20 µM
Kd (HLA-A*68:02; [21]): ≥ 20 µM
Kd (HLA-A*02:01 [1]; [21]): ≥ 20 µM
Kd (HLA-A*26:01; [21]): ≥ 20 µM

SELTVSPPD
Kd (HLA-B*57:01 [2]; [22]): ≥ 20 µM
Kd (HLA-B*15:17 [8]): ≥ 20 µM
Kd (HLA-A*02:16; [22]): ≥ 20 µM
Kd (HLA-A*02:12; [22]): ≥ 20 µM
Kd (HLA-A*03:01 [3]; [22]): ≥ 20 µM
Kd (HLA-B*39:01; [22]): ≥ 20 µM
Kd (HLA-A*02:19; [22]): ≥ 20 µM
Kd (HLA-A*24:03; [22]): ≥ 20 µM
Kd (HLA-B*27:03; [22]): ≥ 20 µM
Kd (HLA-B*15:01 [4]; [22]): ≥ 20 µM
Kd (HLA-A*02:03; [22]): ≥ 20 µM
Kd (HLA-B*18:01; [22]): 0.845 µM
Kd (HLA-B*46:01 [5]; [22]): ≥ 20 µM
Kd (HLA-A*69:01; [22]): ≥ 20 µM
Kd (HLA-B*51:01 [6]; [22]): ≥ 20 µM
Kd (HLA-A*68:02; [22]): ≥ 20 µM
Kd (HLA-A*02:01 [1]; [22]): ≥ 20 µM
Kd (HLA-A*26:01; [22]): ≥ 20 µM

YPARVKCAL
Kd (HLA-B*48:01): ≥ 20 µM
Kd (HLA-B*57:01 [9]): ≥ 20 µM
Kd (HLA-B*15:17 [10]): ≥ 20 µM
Kd (HLA-A*31:01 [11]): ≥ 20 µM
Kd (HLA-B*40:01): ≥ 20 µM
Kd (HLA-A*03:01 [12]): ≥ 20 µM
Kd (HLA-B*15:01 [13]): ≥ 20 µM
Kd (HLA-B*15:09): 1.09 µM
Kd (HLA-B*46:01 [14]): ≥ 20 µM
Kd (HLA-B*58:01): ≥ 20 µM
Kd (HLA-B*27:05): ≥ 20 µM
Kd (HLA-B*51:01 [15]): ≥ 20 µM
Kd (HLA-A*02:01 [16]): ≥ 20 µM
Kd (HLA-A*01:01): ≥ 20 µM
Kd (HLA-A*11:01): ≥ 20 µM
Kd (HLA-A*30:01): 2.54 µM
Kd (HLA-B*39:01; [23]): 0.0229 µM
Kd (HLA-A*69:01; [23]): ≥ 20 µM
Kd (HLA-B*08:01; [23]): 0.097 µM
